Experimental data: patent publication US20110123544A1 (published 2011)

T1: recombinant human IL-12 (rhIL-12) (human, UniProt P29459 23-219; P29460 23-328)
T1 construct: disulfide-linked p35/p40 heterodimer (p70); also called rec. human IL12; IL-12 p70
T1 sequence (looked up) 1: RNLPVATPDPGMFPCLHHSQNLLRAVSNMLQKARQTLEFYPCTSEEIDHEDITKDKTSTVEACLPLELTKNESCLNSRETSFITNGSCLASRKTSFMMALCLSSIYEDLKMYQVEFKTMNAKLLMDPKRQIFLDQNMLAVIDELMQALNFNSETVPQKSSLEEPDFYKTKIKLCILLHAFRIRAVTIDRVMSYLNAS
T1 sequence (looked up) 2: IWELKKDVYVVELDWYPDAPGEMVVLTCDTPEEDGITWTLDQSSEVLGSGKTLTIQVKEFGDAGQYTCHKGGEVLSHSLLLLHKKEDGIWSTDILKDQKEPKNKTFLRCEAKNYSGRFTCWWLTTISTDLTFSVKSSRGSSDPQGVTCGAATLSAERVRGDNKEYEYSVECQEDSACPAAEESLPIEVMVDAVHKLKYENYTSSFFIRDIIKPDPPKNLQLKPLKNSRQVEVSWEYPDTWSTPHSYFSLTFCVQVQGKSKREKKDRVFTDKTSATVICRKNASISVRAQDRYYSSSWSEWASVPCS

T2: recombinant human IL-12 (rhIL-12) (human, UniProt P29459 23-219; P29460 23-328)
T2 chain 1: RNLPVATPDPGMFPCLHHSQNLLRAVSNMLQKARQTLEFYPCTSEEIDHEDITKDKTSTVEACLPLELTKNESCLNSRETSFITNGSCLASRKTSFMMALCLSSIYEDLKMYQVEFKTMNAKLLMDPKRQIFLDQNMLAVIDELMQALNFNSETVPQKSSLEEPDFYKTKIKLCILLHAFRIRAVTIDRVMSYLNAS
T2 chain 2: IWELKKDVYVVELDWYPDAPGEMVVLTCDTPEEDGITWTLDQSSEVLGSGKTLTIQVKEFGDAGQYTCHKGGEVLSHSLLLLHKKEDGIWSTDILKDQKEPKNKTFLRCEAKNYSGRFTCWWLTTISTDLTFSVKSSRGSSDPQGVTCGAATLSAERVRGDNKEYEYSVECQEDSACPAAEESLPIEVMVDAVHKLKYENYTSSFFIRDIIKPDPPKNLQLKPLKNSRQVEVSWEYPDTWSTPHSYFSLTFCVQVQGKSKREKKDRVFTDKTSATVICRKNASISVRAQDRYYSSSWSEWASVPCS

T3: recombinant human interleukin 12 (p40/p35 heterodimer) (human, UniProt P29460 23-328; P29459 23-219)
T3 chain 1: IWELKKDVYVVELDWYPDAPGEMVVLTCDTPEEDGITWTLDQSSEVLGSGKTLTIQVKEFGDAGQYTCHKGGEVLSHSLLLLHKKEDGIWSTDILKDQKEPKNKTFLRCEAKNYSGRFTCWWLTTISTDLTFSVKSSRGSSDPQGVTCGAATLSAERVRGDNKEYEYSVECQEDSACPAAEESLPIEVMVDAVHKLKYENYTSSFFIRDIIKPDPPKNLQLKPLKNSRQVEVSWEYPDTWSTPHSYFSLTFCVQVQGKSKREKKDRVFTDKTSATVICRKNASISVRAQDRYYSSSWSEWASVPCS
T3 chain 2: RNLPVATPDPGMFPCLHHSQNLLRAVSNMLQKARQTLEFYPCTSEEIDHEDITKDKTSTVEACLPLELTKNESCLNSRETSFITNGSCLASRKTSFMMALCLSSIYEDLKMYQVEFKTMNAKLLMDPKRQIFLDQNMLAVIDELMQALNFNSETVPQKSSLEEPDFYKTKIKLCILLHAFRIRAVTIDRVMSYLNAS


Target: T1, recombinant human IL-12 (rhIL-12)
Assay: BIAcore (SPR) off-rate on IL-12 chip
Source text: The system utilizes the optical properties of SPR to detect alterations in protein concentrations within a dextran biosensor matrix. Proteins are covalently bound to the dextran matrix at known concentrations. […] To determine the off rate (koff), on rate (kₒₙ), association rate (Ka) and dissociation rate (Kd) constants, BIAcore kinetic evaluation software (version 2.1) was used.

Binder | koff
99-H7 (scFv, V domains shown) VH: QVQLVQSGGGVVQPGRSLRLSCAASGFTFSSYGMHWVRQAPGKGLEWVAFIRYDGSNKYYADSVKGRFTISRDNSKNTLYLQMKSLRAEDTAVYYCKTHGSHDNWGQGTMVTVSS VL: SYVLTQPPSVSGTPGQRVTISCSGGRSNIGSNTVKWYQQLPGTAPKLLIYGNDQRPSGVPDRFSGSKSGTSASLAITGVQAEDEADYYCQSYPDGTPASRVFGTGTKVTVLG | 0.0033 s⁻¹
Y61-L50Y-H31E-L94Y IgG (antibody, V domains shown) VH: QVQLVQSGGGVVQPGRSLRLSCAASGFTFSEYGMHWVRQAPGKGLEWVAFIRYDGSNKYYADSVKGRFTISRDNSKNTLYLQMKSLRAEDTAVYYCKTHGSHDNWGQGTMVTVSS VL: SYVLTQPPSVSGTPGQRVTISCSGGRSNIGSNTVKWYQQLPGTAPKLLIYYNDQRPSGVPDRFSGSKSGTSASLAITGVQAEDEADYYCQSYDRYTHPALLFGTGTKVTVLG | 4.64e-05 s⁻¹
99-F7 (scFv, V domains shown) VH: QVQLVQSGGGVVQPGRSLRLSCAASGFTFSSYGMHWVRQAPGKGLEWVAFIRYDGSNKYYADSVKGRFTISRDNSKNTLYLQMKSLRAEDTAVYYCKTHGSHDNWGQGTMVTVSS VL: SYVLTQPPSVSGTPGQRVTISCSGGRSNIGSNTVKWYQQLPGTAPKLLIYGNDQRPSGVPDRFSGSKSGTSASLAITGVQAEDEADYYCQSYPNSYPISRVFGTGTKVTVLG | 0.0048 s⁻¹
99-H4 (scFv, V domains shown) VH: QVQLVQSGGGVVQPGRSLRLSCAASGFTFSSYGMHWVRQAPGKGLEWVAFIRYDGSNKYYADSVKGRFTISRDNSKNTLYLQMKSLRAEDTAVYYCKTHGSHDNWGQGTMVTVSS VL: SYVLTQPPSVSGTPGQRVTISCSGGRSNIGSNTVKWYQQLPGTAPKLLIYGNDQRPSGVPDRFSGSKSGTSASLAITGVQAEDEADYYCQSYDSRFTGSRVFGTGTKVTVLG | 0.0048 s⁻¹

More lines, now with the values ahead:

koff | Binder
2.99e-05 s⁻¹ | Y61-L50Y-H31E IgG (antibody, V domains shown) VH: QVQLVQSGGGVVQPGRSLRLSCAASGFTFSEYGMHWVRQAPGKGLEWVAFIRYDGSNKYYADSVKGRFTISRDNSKNTLYLQMKSLRAEDTAVYYCKTHGSHDNWGQGTMVTVSS VL: SYVLTQPPSVSGTPGQRVTISCSGGRSWIGSNTVKWYQQLPGTAPKLLIYYNDQRPSGVPDRFSGSKSGTSASLAITGVQAEDEADYYCQSYDRGTHPALLFGTGTKVTVLG
0.0049 s⁻¹ | 99-F6 (scFv, V domains shown) VH: QVQLVQSGGGVVQPGRSLRLSCAASGFTFSSYGMHWVRQAPGKGLEWVAFIRYDGSNKYYADSVKGRFTISRDNSKNTLYLQMKSLRAEDTAVYYCKTHGSHDNWGQGTMVTVSS VL: SYVLTQPPSVSGTPGQRVTISCSGGRSNIGSNTVKWYQQLPGTAPKLLIYGNDQRPSGVPDRFSGSKSGTSASLAITGVQAEDEADYYCQSYDSGSTGSRVFGTGTKVTVLG
0.0049 s⁻¹ | 99-H11 (scFv, V domains shown) VH: QVQLVQSGGGVVQPGRSLRLSCAASGFTFSSYGMHWVRQAPGKGLEWVAFIRYDGSNKYYADSVKGRFTISRDNSKNTLYLQMKSLRAEDTAVYYCKTHGSHDNWGQGTMVTVSS VL: SYVLTQPPSVSGTPGQRVTISCSGGRSNIGSNTVKWYQQLPGTAPKLLIYGNDQRPSGVPDRFSGSKSGTSASLAITGVQAEDEADYYCQSYSTHMPISRVFGTGTKVTVLG
0.0037 s⁻¹ | 99-F8 (scFv, V domains shown) VH: QVQLVQSGGGVVQPGRSLRLSCAASGFTFSSYGMHWVRQAPGKGLEWVAFIRYDGSNKYYADSVKGRFTISRDNSKNTLYLQMKSLRAEDTAVYYCKTHGSHDNWGQGTMVTVSS VL: SYVLTQPPSVSGTPGQRVTISCSGGRSNIGSNTVKWYQQLPGTAPKLLIYGNDQRPSGVPDRFSGSKSGTSASLAITGVQAEDEADYYCQSYIRAPQQVFGTGTKVTVLG

Target: T1, recombinant human IL-12 (rhIL-12)
Assay: cell-based or functional assay

PHA assay IC50 (M) p70:p40 1:0 | PHA assay IC50 (M) p70:p40 1:20 | PHA assay IC50 (M) p70:p40 1:50 | Binder
6.5e-09 M | 7e-09 M | 4e-09 M | 149-5 (scFv, V domains shown) VH: QVQLVQSGGGVVQPGRSLRLSCAASGFTFSSYGMHWVRQAPGKGLEWVAFIRYDGSNKYYADSVKGRFTISRDNSKNTLYLQMKSLRAEDTAVYYCTTHGSHDTWGQGTMVTVSS VL: SYVLTQPPSVSGTPGQRVTISCSGGRSNIGSNTVKWYQQLPGTAPKLLIYGNDQRPSGVPDRFSGSKSGTSASLAITGVQAEDEADYYCQSYDSSLWGTRVFGTGTKVTVLG
 | 5e-09 M | 4e-09 M | 136-15 (scFv, V domains shown) VH: QVQLVQSGGGVVQPGRSLRLSCAASGFTFSSYGMHWVRQAPGKGLEWVAFIRYDGSNKYYADSVKGRFTISRDNSKNTLYLQMKSLRAEDTAVYYCKTHGSHDNWGQGTMVTVSS VL: SYVLTQPPSVSGTPGQRVTISCSGSRSNIGSNTVKWYQQLPGTAPKLLIYGNDQRPSGVPDRFSGSKSGTSASLAITGVQAEDEADYYCQTYDKGFTGSSVFGTGTKVTVLG
9e-10 M | 1e-09 M | 1e-09 M | 149-6 (scFv, V domains shown) VH: QVQLVQSGGGVVQPGRSLRLSCAASGFTFSSYGMHWVRQAPGKGLEWVAFIRYDGSNKYYADSVKGRFTISRDNSKNTLYLQMKSLRAEDTAVYYCTTHGSHDNWGQGTMVTVSS VL: SYVLTQPPSVSGTPGQRVTISCSGGRSNIVSNTVKWYQQLPGTAPKLLIYGNDQRPSGVPDRFSGSKSGTSASLAITGVQAEDEADYYCQSYDRGFTGSRVFGTGTKVTVLG

Target: T2, recombinant human IL-12 (rhIL-12)
Assay: BIAcore

Binder | koff
HGSHAN [Y61 H101 A] | 0.00106 s⁻¹
HGSHDI [Y61 H102 I] | 0.000996 s⁻¹
HGSHDP [Y61 H102 P] | 0.00181 s⁻¹
HGSHVN [Y61 H101 V] | 0.00163 s⁻¹
HGSHDR [Y61 H102 R] | 0.000575 s⁻¹
HGSHDG [Y61 H102 G] | 0.000692 s⁻¹
HGSHDL [Y61 H102 L] | 0.000956 s⁻¹
HGSHDA [Y61 H102 A] | 0.000382 s⁻¹
HGSHDT [Y61 H102 T] | 0.000333 s⁻¹
HGSHDH [Y61 H102 H] | 0.00018 s⁻¹
HGSHGN [Y61 H101 G] | 0.00375 s⁻¹

Now from value to binder:

koff | Binder
0.00162 s⁻¹ | HGSHIN [Y61 H101 I]
0.000318 s⁻¹ | HGSHDF [Y61 H102 F]
0.00223 s⁻¹ | HGSHNN [Y61 H101 N]

Target: T1, recombinant human IL-12 (rhIL-12)
Assay: cell-based or functional assay
Remark: another data set of the same source

IFN gamma IC50 | PHA assay IC50 | Binder
0.02 nM | 0.06 nM | Y61-L50Y-H31E IgG (antibody, V domains shown) VH: QVQLVQSGGGVVQPGRSLRLSCAASGFTFSEYGMHWVRQAPGKGLEWVAFIRYDGSNKYYADSVKGRFTISRDNSKNTLYLQMKSLRAEDTAVYYCKTHGSHDNWGQGTMVTVSS VL: SYVLTQPPSVSGTPGQRVTISCSGGRSWIGSNTVKWYQQLPGTAPKLLIYYNDQRPSGVPDRFSGSKSGTSASLAITGVQAEDEADYYCQSYDRGTHPALLFGTGTKVTVLG
0.01 nM | 0.01 nM | Y61-L50Y-H31E-L94Y IgG (antibody, V domains shown) VH: QVQLVQSGGGVVQPGRSLRLSCAASGFTFSEYGMHWVRQAPGKGLEWVAFIRYDGSNKYYADSVKGRFTISRDNSKNTLYLQMKSLRAEDTAVYYCKTHGSHDNWGQGTMVTVSS VL: SYVLTQPPSVSGTPGQRVTISCSGGRSNIGSNTVKWYQQLPGTAPKLLIYYNDQRPSGVPDRFSGSKSGTSASLAITGVQAEDEADYYCQSYDRYTHPALLFGTGTKVTVLG

Target: T3, recombinant human interleukin 12 …
Assay: BIAcore; unmutated

Binder | koff
FTFSSYGMH [Y61 H32 Y] | 0.000337 s⁻¹
FTFSSYGMH [Y61 H33 G] | 0.000178 s⁻¹

Continued, values first:

koff | Binder
0.000168 s⁻¹ | FTFSSYGMH [Y61 H30 S]
0.000249 s⁻¹ | FTFSSYGMH [Y61 H31 S]

Target: T3, recombinant human interleukin 12 …
Assay: BIAcore; unmutated
Remark: another data set of the same source

Binder | koff
FIRYDGSNKYYADSVKG [Y61 H53 D] | 0.000151 s⁻¹
FIRYDGSNKYYADSVKG [Y61 H54 G] | 0.000178 s⁻¹

Now from value to binder:

koff | Binder
0.000206 s⁻¹ | FIRYDGSNKYYADSVKG [Y61 H52 R]
0.000204 s⁻¹ | FIRYDGSNKYYADSVKG [Y61 H50 F]
